Where two headings read alike, the source gives them in different places.
B1: nebulin SH3 (domain or fragment, human, UniProt P20929 8466-8525, looked up)
chain: TAGKIFRAMYDYMAADADEVSFKDGDAIINVQAIDEGWMYGTVQRTGRTGMLPANYVEAI
B2: [PPE172_(15)], recombinant polyprotein of 15 tandem repeats of the human titin exon 172 PEVK module (other)
chain: PEPPKEVVPEKKAPVAPPKKPEVPPVKVPEPPKEVVPEKKAPVAPPKKPEVPPVKVPEPPKEVVPEKKAPVAPPKKPEVPPVKVPEPPKEVVPEKKAPVAPPKKPEVPPVKVPEPPKEVVPEKKAPVAPPKKPEVPPVKVPEPPKEVVPEKKAPVAPPKKPEVPPVKVPEPPKEVVPEKKAPVAPPKKPEVPPVKVPEPPKEVVPEKKAPVAPPKKPEVPPVKVPEPPKEVVPEKKAPVAPPKKPEVPPVKVPEPPKEVVPEKKAPVAPPKKPEVPPVKVPEPPKEVVPEKKAPVAPPKKPEVPPVKVPEPPKEVVPEKKAPVAPPKKPEVPPVKVPEPPKEVVPEKKAPVAPPKKPEVPPVKVPEPPKEVVPEKKAPVAPPKKPEVPPVKVPEPPKEVVPEKKAPVAPPKKPEVPPVKV

Tests used:
[1] = molecular target: B2; test: ELISA
[2] = molecular target: B2; test: ELISA
[3] = molecular target: B1; test: ELISA
[4] = molecular target: B1; test: ELISA; remark: listed apart in the source
[5] = molecular target: B1; test: SPR

| KD in the presence of 50 μg/ml RT11 [1] | KD in the presence of 50 μg/ml RT11 [2] | Kd [3] | Kd [4] | Kd [5] | Binder |
| --- | --- | --- | --- | --- | --- |
| 9.69 µM | 471 µM |  |  |  | B1 |
|  |  | 7 µM | 23 µM | 340 µM | B2 |

Reference: publication PMC3463739 (Protein expression and purification, 2012)
